Laboratory results: paper PMC3154886 (Molecular Biology of the Cell, 2011)

Target: Human EB3 (end-binding protein 3) (human, UniProt Q9UPY8 1-281)
Test: cross-linking

Human EB3 (end-binding protein 3), sequence (Q9UPY8 whole entry): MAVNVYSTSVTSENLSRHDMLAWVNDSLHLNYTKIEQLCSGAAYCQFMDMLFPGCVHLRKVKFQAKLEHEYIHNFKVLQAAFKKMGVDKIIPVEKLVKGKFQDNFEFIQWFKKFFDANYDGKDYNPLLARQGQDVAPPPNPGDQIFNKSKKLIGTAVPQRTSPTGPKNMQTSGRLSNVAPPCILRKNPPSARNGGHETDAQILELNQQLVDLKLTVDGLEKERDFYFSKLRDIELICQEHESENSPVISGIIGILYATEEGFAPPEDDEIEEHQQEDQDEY

B1: Human EB1 (end-binding protein 1) (natural protein)
chain: MAVNVYSTSVTSDNLSRHDMLAWINESLQLNLTKIEQLCSGAAYCQFMDMLFPGSIALKKVKFQAKLEHEYIQNFKILQAGFKRMGVDKIIPVDKLVKGKFQDNFEFVQWFKKFFDANYDGKDYDPVAARQGQETAVAPSLVAPALNKPKKPLTSSSAAPQRPISTQRTAAAPKAGPGVVRKNPGVGNGDDEAAELMQQVNVLKLTVEDLEKERDFYFGKLRNIELICQENEGENDPVLQRIVDILYATDEGFVIPDEGGPQEEQEEY
  binding result: binds
